Reference: patent publication US20240002501A1
Where two headings read alike, the source gives them in different places.

Tests used:
L1-CAM-Fc [1] = biological target: L1-CAM-Fc (UniProt P32004); assay: SPR (Biacore T100), L1-CAM-Fc immobilised on CM5 chip
L1-CAM-Fc [2] = biological target: L1-CAM-Fc (UniProt P32004); assay: as above; remark: listed apart in the source
L1-CAM-His = assay: SPR (Biacore T100), L1-CAM-His immobilised on CM5 chip
L1-CAM-His, sequence (P32004 20-1120): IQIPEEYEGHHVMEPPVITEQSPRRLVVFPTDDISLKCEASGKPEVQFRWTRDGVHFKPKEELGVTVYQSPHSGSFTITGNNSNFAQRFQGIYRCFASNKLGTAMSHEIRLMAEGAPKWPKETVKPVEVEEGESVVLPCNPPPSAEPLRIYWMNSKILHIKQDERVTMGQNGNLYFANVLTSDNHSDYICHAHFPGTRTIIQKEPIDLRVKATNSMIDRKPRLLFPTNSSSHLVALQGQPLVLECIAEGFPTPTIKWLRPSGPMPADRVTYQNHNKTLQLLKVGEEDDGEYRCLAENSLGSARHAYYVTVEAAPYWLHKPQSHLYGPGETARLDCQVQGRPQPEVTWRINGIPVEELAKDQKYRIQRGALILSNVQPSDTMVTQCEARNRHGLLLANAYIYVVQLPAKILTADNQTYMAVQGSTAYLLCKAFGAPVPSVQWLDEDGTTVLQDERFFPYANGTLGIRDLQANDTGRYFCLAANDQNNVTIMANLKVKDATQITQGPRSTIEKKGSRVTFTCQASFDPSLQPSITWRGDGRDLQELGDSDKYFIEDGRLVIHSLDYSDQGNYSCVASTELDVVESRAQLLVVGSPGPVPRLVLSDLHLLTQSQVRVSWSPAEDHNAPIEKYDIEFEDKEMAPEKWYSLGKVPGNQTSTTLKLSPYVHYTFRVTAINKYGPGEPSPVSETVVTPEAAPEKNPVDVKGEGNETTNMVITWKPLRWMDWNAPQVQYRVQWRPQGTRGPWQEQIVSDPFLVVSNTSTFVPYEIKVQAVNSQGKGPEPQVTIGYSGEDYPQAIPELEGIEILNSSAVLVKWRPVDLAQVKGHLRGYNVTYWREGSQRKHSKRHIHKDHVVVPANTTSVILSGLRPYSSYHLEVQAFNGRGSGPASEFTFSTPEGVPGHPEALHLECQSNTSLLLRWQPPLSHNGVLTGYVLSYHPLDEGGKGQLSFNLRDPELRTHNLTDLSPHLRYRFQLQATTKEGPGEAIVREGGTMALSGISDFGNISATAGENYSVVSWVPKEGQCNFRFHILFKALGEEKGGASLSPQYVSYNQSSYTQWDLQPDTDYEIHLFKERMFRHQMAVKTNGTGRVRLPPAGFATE

L1-CAM-Fc, sequence (P32004 20-1120 limits assumed): as the sequence (P32004 20-1120) above

B1: chCE7 (antibody, from another filing, V domains shown)
VH: QVQLQQPGAELVKPGASVKLSCKASGYTFTGYWMHWVKQRPGHGLEWIGEINPSNGRTNYNERFKSKATLTVDKSSTTAFMQLSGLTSEDSAVYFCARDYYGTSYNFDYWGQGTTLTVSS
VL: DIQMTQSSSSFSVSLGDRVTITCKANEDINNRLAWYQQTPGNSPRLLISGATNLVTGVPSRFSGSGSGKDYTLTITSLQAEDFATYYCQQYWSTPFTFGSGTELEIK
Kd (L1-CAM-Fc [1]): 0.618 nM | Kd (L1-CAM-Fc [2]): 1.42 nM | Kd (L1-CAM-His): 1.3 nM
